Assays:
p50/p65 complex = experiment: NF-κB DNA binding assay (EMSA); assay type: biochemical, human; details: 293 cells cotransfected with p50 and p65 expression vectors
Procedure: DNA binding assay. Electrophoretic mobility shift assays (EMSAs) were conducted on 10 μg of nuclear extract protein from 293 cells transiently transfected with pRSV p50/p65 expression constructs and pVR1012 PRMT-2-A/PRMT-2-N expression constructs. A modified Dignam procedure (Dignam et al. Nucleic Acids Res. 11, 1475-1489 (1983)) was used to prepare nuclear extracts from 293 cells. Perkins, N. D. et al. Science 275, 523-527 (1997). NF-KB DNA binding was assayed using a double-stranded 32P-labeled κB probe (Geneka Biotechnology). DNA binding assays were performed as described previously. Perkins et al. Science 275, 523-527 (1997). Supershifting was done using NF-κB p65 (C-20) and NF-κB p50 (H-119) (Santa Cruz). GST-PRMT-2-A fusion proteins were expressed in BL21 (DE3) cells and extracts were prepared as described previously. Smith, D. B. & Johnson, K. S. Gene 67, 31-40 (1988).

IκB-α = experiment: Co-immunoprecipitation with endogenous IκB-α in 293 cells; assay type: binding, human; details: HA-tagged constructs in 293 cells
Chain of IκB-α (P25963 whole entry, the tested form may be a part): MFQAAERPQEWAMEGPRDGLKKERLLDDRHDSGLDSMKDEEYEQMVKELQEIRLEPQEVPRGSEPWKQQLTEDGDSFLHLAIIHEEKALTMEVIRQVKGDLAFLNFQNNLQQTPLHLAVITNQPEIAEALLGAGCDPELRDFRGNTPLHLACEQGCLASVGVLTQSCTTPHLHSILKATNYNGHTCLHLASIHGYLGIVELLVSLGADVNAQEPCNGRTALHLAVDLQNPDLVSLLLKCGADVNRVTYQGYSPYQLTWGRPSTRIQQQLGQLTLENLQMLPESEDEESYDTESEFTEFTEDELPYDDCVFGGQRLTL
Excerpt: A polyclonal antibody to recombinant PRMT2 was used to examine the association between endogenous PRMT2 and IκB-α in vivo. […] The domain of IκB-α required for association with PRMT2 was mapped using in vivo immunoprecipitation assays where HA-tagged PRMT2 was coexpressed with truncation mutants of His-tagged IκB-α (FIG. 5B) in 293 cells. The ankyrin domain was both necessary and sufficient for this association (FIG. 5D, lanes 1 and 2). The domain of PRMT2 that interacted with endogenous IκB-α was mapped by immunoprecipitation following expression HA-tagged PRMT2 truncation mutants (FIG. 5C). […] When the ratios of PRMT2 or PRMT2-A binding to IκB-α were compared, both interacted with IκB-α with similar affinity.

NF-κB = experiment: κB luciferase reporter in MEFs; assay type: cell-based, mouse; details: PRMT2−/− MEFs complemented by transfection
Procedure: Cell culture, transfection, and reporter gene assays. The E1A-transformed, human kidney cell line, 293, and NIH-3T3 cells were maintained in Dulbecco's Modified Eagle Medium (DMEM) supplemented with 10% fetal calf serum and penicillin-streptomycin at 37° C. in 5% carbon dioxide in tissue culture grade Petri dishes. PRMT-2−/− mouse embryo fibroblasts (MEFs) and wild type MEFs were prepared from day 13.5 embryos and maintained in DMEM supplemented with 10% fetal calf serum. MEFs at passage 4 were used in this experiment. Lipofectamine Plus™ reagent (Boehringer Mannheim) was used to transfect both 293 and NIH-3T3 cells according to directions from the manufacturer. […] TNF-α stimulation of cells was done using recombinant TNF-α (200 U/ml) for 12 hours. Transfected cells were harvested at 36 hours, and CAT activity was assayed on 10 to 100 μg of protein from whole cell extracts. CAT assays were performed essentially as described in Leung, K. & Nabel, G. J. Nature 333, 776-778 (1988). […] Luciferase activity was analyzed by Dual-Luciferase Reporter Assay System (Promega).
To determine whether similar effects would be observed in non-transformed cell lines with physiological levels of protein, NF-κB inducibility was analyzed in mouse embryonic fibroblasts (MEFs) derived from PRMT2 null mice (T. Y. et al., manuscript in preparation). […]

B1: PRMT2: human PRMT-2 polypeptide, SEQ ID NO:2, expressed from pVR1012 vector with HA-tag (protein, listed as Homo sapiens)
chain: MATSGDCPRSESQGEEPAECSEAGLLQEGVQPEEFVAIADYAATDETQLSFLRGEKILILRQTTADWWWGERAGCCGYIPANHVGKHVDEYDPEDTWQDEEYFGSYGTLKLHLEMLADQPRTTKYHSVILQNKESLTDKVILDVGCGTGIISLFCAHYARPRAVYAVEASEMAQHTGQLVLQNGFADIITVYQQKVEDVVLPEKVDVLVSEWMGTCLLFEFMIESILYARDAWLKEDGVIWPTMAALHLVPCSADKDYRSKVLFWDNAYEFNLSALKSLAVKEFFSKPKYNHILKPEDCLSEPCTILQLDMRTVQISDLETLRGELRFDIRKAGTLHGFTAWFSVHFQSLQEGQPPQVLSTGPFHPTTHWKQTLFMMDDPVPVHTGDVVTGSVVLQRNPVWRRHMSVALSWAVTSRQDPTSQKVGEKVFPIWR
modifications: HA tag
In the case of B1, the “NF-κB DNA binding in nuclear extracts of transfected cells” value (p50/p65 complex) is reported as “inhibited DNA binding of the p50/p65 complex in a dose-dependent manner”, the “association with endogenous IκB-α” value (IκB-α) is reported as “interacted” and the “NF-κB induction by TNF-α” value (NF-κB) is reported as “completely abolished NF-κB induction by TNF-α”.
